Measured values taken from patent publication US20110263816A1.
No end group written: not given here.

% conv. at 24 h (covalent modification with diazo 1, MALDI-TOF MS) (E3gX, X = Arg): 73 % conv.
% conv. at 24 h (covalent modification with diazo 1, MALDI-TOF MS) (E3gX, X = Asn): 70 % conv.
% conv. at 24 h (covalent modification with diazo 1, MALDI-TOF MS) (E3gX, X = Asp): 53 % conv.
% conv. at 24 h (covalent modification with diazo 1, MALDI-TOF MS) (E3gX, X = Cys): 78 % conv.
% conv. at 24 h (covalent modification with diazo 1, MALDI-TOF MS) (E3gX, X = Gln): > 95 % conv.
% conv. at 24 h (covalent modification with diazo 1, MALDI-TOF MS) (E3gX, X = Glu): 76 % conv.
% conv. at 24 h (covalent modification with diazo 1, MALDI-TOF MS) (E3gX, X = His): 17 % conv.
% conv. at 24 h (covalent modification with diazo 1, MALDI-TOF MS) (E3gX, X = Lys): 8 % conv.
% conv. at 24 h (covalent modification with diazo 1, MALDI-TOF MS) (E3gX, X = Phe): > 95 % conv.
% conv. at 24 h (covalent modification with diazo 1, MALDI-TOF MS) (E3gX, X = Ser): 28 % conv.
% conv. at 24 h (covalent modification with diazo 1, MALDI-TOF MS) (E3gX, X = Trp): > 95 % conv.
% conv. at 24 h (covalent modification with diazo 1, MALDI-TOF MS) (E3gX, X = Tyr): > 95 % conv.
B1: K3a,eRh2 (peptide)
peptide: KISALKQKESALEQKISALEK
modifications: also: Rh2(OAc)2 dirhodium centre bound through two Glu side chains, places not given here
